For the data set, the system named is MS2 coat protein. Kind of data set: apparent KD of MS2 coat protein; designed switch direction (-1 OFF switch, 1 ON switch): 1; higher = weaker reporter binding. The method in brief: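 The buffer was Tris-HCl pH 7.5 with KCl, MgCl2, BSA, DTT, tRNA and Tween-20. In it, SNAP-549-labelled MS2 coat protein was titrated in doubling steps from 0.7 or 1.5 nM to 3 µM over chip-bound RNA switches transcribed by stalled E. coli RNA polymerase on Illumina chips. Apparent KD is the per-design median over clusters of curve fits to normalised fluorescence.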

[1] abbreviates: Eterna round: R95, input ligand: FMN 200 uM.
Where [2] appears, read: Eterna round: R95, input ligand: microRNA oligo, concentration not stated.
Setting [3] is: Eterna round: R95, input ligand: none.
Where [4] appears, read: input ligand: microRNA oligo, concentration not stated.

For the sequence “GGAGCCGGCACGGAGGAUAUUCAUAUUAAAACAUGAGGAUCACCCAUGUAGGCCAGAAGGCCUUGGGAGAAGGCCGAUCGGCUCG [Xeonanis - 15] (puzzle: Same State 2)”, the “apparent KD of MS2 coat protein” value by setting is: under setting [1], 21.9 nM; under setting [2], 306 nM; under setting [3], 409 nM.

For the sequence “UUUUUUAUCGUAGGAUAUAGGUUGAAUAAUAGACUAGAAGGACGUGACAUGAGGAUCACCCAUGUUUUUUAAGUGUCGAAGUGU [JR_SSNG1_Sub039] (Eterna round: R96, puzzle: Same State NG 1)”, the “apparent KD of MS2 coat protein” value under setting [4] came to 19.6 nM.

As to “GGCUAUCGCGUACGAUAGCUUAAGCAUGUACAUGAGGAUCACCCAUGUCAUGUACAGGCUUUUUGCUCGUCUUAUUG [JL-shm-2.35 JL mod] (puzzle: Sensor for hsa-mir-208a)”, the “apparent KD of MS2 coat protein” value stood at 517 nM under setting [1], 17 nM under setting [2] and 467 nM under setting [3].

“AUUAUUAAUGCAGGAUAUGAUUAACAUGAGGAUCACCCAUGUGGUGUUGUGAGUAAGGAGAGUGAUCAGAAGGGCAAUUUUUUU [JMF's solution 7] (Eterna round: R96, puzzle: Same State NG 2)”: the “apparent KD of MS2 coat protein” value is 382 nM (input ligand: FMN 200 uM), 633 nM under setting [4] and 340 nM (input ligand: none).

Regarding “UGACACACGGCAGGAUAUGCUUAGCAAAGCUAAGCAGAAGGGCCUCAUGUCGUGGAAAUGUGACAUGAGGAUCACCCAUGUUGC [Omei SS(NG)1 Cv6] (Eterna round: R96, puzzle: Same State NG 1)”, the “apparent KD of MS2 coat protein” value by setting is: (input ligand: FMN 200 uM) 39.3 nM; under setting [4], 20.7 nM; (input ligand: none) 92.2 nM.

“UGGCUGAGUCGAGGAUAUGAUCUUCAUAUAAUAACAUGAGGAUCACCCAUGUAUAAUUACAUGGAUCAGAAGGCGACUCAGCCA [SSNG2/13-B2] (Eterna round: R96, puzzle: Same State NG 2)”: the “apparent KD of MS2 coat protein” value under setting [4] was found to be 362 nM.

“GGUAAACAUGAGGAUCACCCAUGUAAUAAUAUGGGAGGAUAUGGGAAUUAAUUAAUUAAACCAGAAGGCCUAAUUG [Mat - Same State 1 - D85] (puzzle: Same State 1)”: the “apparent KD of MS2 coat protein” value under setting [2] was found to be 167 nM.

Regarding “GCGGAACAUGAGGAUCACCCAUGUGGAGGGUGUAAAGGAUAUUAUAGAGAGAAGGUAGGGUAAGAAGGUUGCUUGG [JR_SS1_Sub089] (puzzle: Same State 1)”, the “apparent KD of MS2 coat protein” value came out at 202 nM under setting [1], 96 nM under setting [2] and 541 nM under setting [3].

With “CUACUACAUGAGGAUCACCCAUGUUGGAGUGAUGCAGGAUAUGUGUGACCAGAAGAUGAAACAGAAGGGCAAAGAA [JR_SS!_Sub003] (puzzle: Same State 1)”, the “apparent KD of MS2 coat protein” value by setting is: under setting [1], 41.9 nM; under setting [2], 68 nM; under setting [3], 96.2 nM.

For “UUUAUAUUCAGAGGAUAUUAAUGUAGUAUAACAUAAGAAGGCUGUUUGUUUUGUAAAGUAAUUCUACAUGAGGAUCACCCAUGU [JR_SSNG1_Sub084] (Eterna round: R96, puzzle: Same State NG 1)”, the “apparent KD of MS2 coat protein” value under setting [4] turned out to be 15.5 nM.

Turning to “AAUUAAUUAAUUAAGUACAUGAGGAUCACCCAUGUAAGUGAUCAGGAUAUCAGCUCGAUUAGAGCUGAGAAGGGAUCCAUGUAC [SSNG3/15-A2] (Eterna round: R96, puzzle: Same State NG 3)”, the “apparent KD of MS2 coat protein” value under setting [4] amounted to 400 nM.

With “GUUACAUGAGGAUCACCCAUGUAUGUGUGGGAGUAAGUGUCUUAGGAUAUCUAUUAAUUAAAUUAAGAGAAGGAAGAUUGUUGU [JMF's solution 14] (Eterna round: R96, puzzle: Same State NG 3)”, the “apparent KD of MS2 coat protein” value amounted to 127 nM (input ligand: FMN 200 uM), 83.7 nM under setting [4] and 112 nM (input ligand: none).

Regarding “GGUCGGACUCACAUGAGGAUCACCCAUGUUGGCGAAAGCCGACAGGAUAUCUGUCCGAAAAGGUCAGAGAAGGGUUAACCGACC [Fiskers NG3ss - 61] (Eterna round: R96, puzzle: Same State NG 3)”, the “apparent KD of MS2 coat protein” value runs as follows: (input ligand: FMN 200 uM) 397 nM; under setting [4], 326 nM; (input ligand: none) 159 nM.

On to “GGAGCCGGUACUGAGGAUAUUCAUAUUAAAACAUGAGGAUCACCCAUGUAGGCCGGAAGGCCUUGGGAGAAGGCAGACCAGCUCG [Atgexeedri - 7] (puzzle: Same State 2)”, for which the “apparent KD of MS2 coat protein” value under setting [1] came out at 23.1 nM, the “apparent KD of MS2 coat protein” value under setting [2] worked out at 255 nM and the “apparent KD of MS2 coat protein” value under setting [3] was 441 nM.

Take “GCGAGCGUACUUGCAGACAUGAGGAUCACCCAUGUAACUGGACAGGAUAUGGUACCGUUUCGGUACCAGAAGGGUUCACUCAUG [JL SSNG3 3.58] (Eterna round: R96, puzzle: Same State NG 3)”: the “apparent KD of MS2 coat protein” value runs as follows: (input ligand: FMN 200 uM) 388 nM; under setting [4], 119 nM; (input ligand: none) 176 nM.

Turning to “AGUAGUGUAACAUGAGGAUCACCCAUGUAUGUAUAUGUAACCUAGGAUAUGGAGGUUAUGUUUGACCAGAAGGAGGAUUGUUUA [JR_SSNG3_Sub042] (Eterna round: R96, puzzle: Same State NG 3)”, the “apparent KD of MS2 coat protein” value (input ligand: FMN 200 uM) amounted to 29.7 nM, the “apparent KD of MS2 coat protein” value under setting [4] is 28.7 nM and the “apparent KD of MS2 coat protein” value (input ligand: none) was 33.7 nM.

With “GCGACGGCGAAAGGAUAUCAAAAUCAACAGUGUUGAGAAGGUUCUCCGAGGGUCGCACAUGAGGAUCACCCAUGUCGCGAAUCU [Eternabot solution 35] (Eterna round: R96, puzzle: Same State NG 1)”, under setting [4], the “apparent KD of MS2 coat protein” value worked out at 9.02 nM.

For “AAUUAUUAACAUGAGGAUCACCCAUGUAUUUAUGUUAGUAUCUAACAUAGUCUUAUUAAGCUUUGUGAUUGUCUUAU [Cole's First Solution] (puzzle: Sensor for hsa-mir-208a version 2)”, the “apparent KD of MS2 coat protein” value is, setting by setting: under setting [1], 29.8 nM; under setting [2], 32.6 nM; under setting [3], 38.8 nM.

For “GGAUCAUGACGAGGAUAUGGUACAUGAGGAUCACCCAUGUAUGUACCAUAACGCGUACGACGAAACCAGAAGGCGUCGUGGUCG [Mat - Same State NG 2 - JL mod - D40] (Eterna round: R96, puzzle: Same State NG 2)”, the “apparent KD of MS2 coat protein” value reads like this: (input ligand: FMN 200 uM) 9.88 nM; under setting [4], 21 nM; (input ligand: none) 28 nM.

With “AGUCCAGCCUGAGCUGGACAUUAGCAUGUACAUGAGGAUCACCCAUGUCAUGUACAAGCUAUUUGCUCGUCUUAAAA [Mat - Sensor - JL mod - D76] (Eterna round: R96, puzzle: Sensor for hsa-mir-208a)”, the “apparent KD of MS2 coat protein” value (input ligand: FMN 200 uM) came out at 592 nM, the “apparent KD of MS2 coat protein” value under setting [4] was determined as 15.7 nM and the “apparent KD of MS2 coat protein” value (input ligand: none) is 455 nM.

Turning to “UAAACUUCUUUUAGUGUGUUGCCAGUUUUACAUGAGGAUCACCCAUGUUAAGUAUUGUGGUAUUUUGUUCGUCUUAA [JR_SHM208A_Sub074] (puzzle: Sensor for hsa-mir-208a)”, the “apparent KD of MS2 coat protein” value is 15.2 nM under setting [1], 14.2 nM under setting [2] and 15.3 nM under setting [3].

Regarding “CCUUCGGGAGUAGGAUAUGUAGGAUAUGCCUACAUGAGGAUCACCCAUGUUCGCAUGGCAGAAGGACAGAAGGACACGUUCGCG [pwkr ssNG2 2FMN + 1F5.13] (Eterna round: R96, puzzle: Same State NG 2)”, the “apparent KD of MS2 coat protein” value is 95.4 nM (input ligand: FMN 200 uM), 287 nM under setting [4] and 652 nM (input ligand: none).
